# Test results from patent US20240190943A1 (HANGZHOU EXEGENESIS BIO, published 2024).
# B1: control polypeptide without an Ang BD (Fc fusion)
# chain: SDTGRPFVEMYSEIPEIIHMTEGRELVIPCRVTSPNITVTLKKFPLDTLIPDGKRIIWDSRKGFIISNATYKEIGLLTCEATVNGHLYKTNYLTHRQTNTIIDVVLSPSHGIELSVGEKLVLNCTARTELNVGIDFNWEYPSSKHQHKKLVNRDLKTQSGSEMKKFLSTLTIDGVTRSDQGLYTCAASSGLMTKKNSTFVRVHE
# notes: Signal peptide left out; also called EXG102-02; EXG102-03-1; not shown: Fc fragment of human IgG
# B2: Exg102-13 (other)
# fusion polypeptide (Flt1 signal - VEGFR1 D2 - VEGFR2 D3 - Fc-Hinge - Ang BD): SDTGRPFVEMYSEIPEIIHMTEGRELVIPCRVTSPNITVTLKKFPLDTLIPDGKRIIWDSRKGFIISNATYKEIGLLTCEATVNGHLYKTNYLTHRQTNTIIDVVLSPSHGIELSVGEKLVLNCTARTELNVGIDFNWEYPSSKHQHKKLVNRDLKTQSGSEMKKFLSTLTIDGVTRSDQGLYTCAASSGLMTKKNSTFVRVHEKDKTHTCPPCPAPELLGGPSVGGGGGSGGGGGAQQEECEWDPWTCEHMGSGSATGGSGSTASSGSGSATHQEECEWDPWTCEHMLE
# notes: Carries only the N-terminal 21 amino acids of the Fc (Fc-Hinger) and no full Fc; also called Exemplary polypeptide 4
# Tests used:
# [1] = target: T1, angiopoietin 2 (UniProt O15123 19-496, limits assumed); experiment: Ang2 ELISA, shown relative to Exg102-04; middle bar of each group
# T1 construct: also called Ang2; ANGPT2
# T1 sequence (looked up): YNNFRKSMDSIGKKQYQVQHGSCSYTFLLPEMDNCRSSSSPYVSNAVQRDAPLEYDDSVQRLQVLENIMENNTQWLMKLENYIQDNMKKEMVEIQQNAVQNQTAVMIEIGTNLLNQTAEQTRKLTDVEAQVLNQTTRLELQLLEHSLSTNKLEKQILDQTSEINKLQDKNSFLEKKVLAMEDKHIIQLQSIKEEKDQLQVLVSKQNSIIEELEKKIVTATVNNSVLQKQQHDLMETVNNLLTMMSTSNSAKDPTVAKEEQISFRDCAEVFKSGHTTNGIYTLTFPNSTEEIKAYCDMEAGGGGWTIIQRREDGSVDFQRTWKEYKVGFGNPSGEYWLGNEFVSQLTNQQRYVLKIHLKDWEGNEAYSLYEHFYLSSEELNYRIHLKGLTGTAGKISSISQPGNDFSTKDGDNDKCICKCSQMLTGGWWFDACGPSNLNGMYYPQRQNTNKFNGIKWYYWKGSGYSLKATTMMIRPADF
# [2] = target: T2, VEGF-A (UniProt P15692-4 27-191, limits assumed); experiment: VEGF-A binding ELISA (OD450), titration in pM of the product of plasmid-transfected cells
# T2 construct: also called rVEGF; vascular endothelial growth factor
# T2 sequence (P15692 other isoform, or with tags, fused parts or gaps limits assumed): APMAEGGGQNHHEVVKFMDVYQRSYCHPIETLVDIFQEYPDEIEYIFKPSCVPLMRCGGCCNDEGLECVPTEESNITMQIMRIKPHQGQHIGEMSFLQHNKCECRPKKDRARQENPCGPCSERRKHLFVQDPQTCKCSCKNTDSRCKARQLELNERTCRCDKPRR
binder,measurement,setting,value
B1,binding result,[1],no binding
same,EC50 (read off the curve),[2],~0.3 nM
B2,binding result,[1],no binding
